Molecular target: the molecule itself
Assay: negative staining electron microscopy; purified protein incubated overnight at 30°C with preformed liposomes (protein/lipid 1/20; DMPC-d54/β-sitosterol 85/15 or DMPC-d54/β-sitosterol/PIP mix 75/15/10), 2% uranyl acetate stain; filaments mostly in samples without PIPs, very few with PIPs

B1: REM_(86-198), truncated StREM1.3 bearing only the coiled-coil domain and RemCA (domain or fragment, Solanum tuberosum (potato), UniProt P93788 86-198, looked up)
chain: TEKRVSLIKAWEESEKSKAENKAQKKVSAIGAWENSKKANLEAELKKMEEQLEKKKAEYTEKMKNKIALLHKEAEEKRAMIEAKRGEDLLKAEELAAKYRATGTAPKKILGIF
notes: Remorin group 1 isoform 3 (StREM1.3) of potato (Solanum tuberosum), residues 86-198: coiled-coil segment and the C-terminal membrane anchor RemCA; source: E. coli BL21-DE3 (pET24 vector), purified as described in Martinez et al. (2018), HiPrep gel filtration buffer exchange
  binding result: binds
